Common to all, as to format: biochemical, Homo sapiens
Substrate in series [1]: O=P(O)(O)O[C@H]1O[C@H](CO)[C@H](O)[C@H](O)[C@H]1O
As to the kind of experiment: continuous assay based on PPi detection, forward reaction, Michaelis-Menten and cooperative fits. To be noted: Gal1P varied 0.01-2 mM at 1 mM UTP.

Substrate in series [2]: O=P(O)(O)O[C@H]1O[C@H](CO)[C@@H](O)[C@H](O)[C@H]1O
As to the kind of experiment: continuous assay based on PPi detection, forward reaction, Michaelis-Menten fit. The note with it: Glc1P varied 0.01-1 mM at 1 mM UTP.

Substrate in series [3]: O=c1ccn([C@@H]2O[C@H](COP(=O)(O)OP(=O)(O)OP(=O)(O)O)[C@@H](O)[C@H]2O)c(=O)[nH]1
Described as above. To be noted: UTP varied 0.01-0.8 mM at 2 mM Glc1P.

The results in this text go back to PMC7139386, “Defects in Galactose Metabolism and Glycoconjugate Biosynthesis in a UDP-Glucose Pyrophosphorylase-Deficient Cell Line Are Reversed by Adding Galactose to the Growth Medium” (International Journal of Molecular Sciences, 2020).

Substitutions are numbered along the chain they refer to. Names and notes keep the numbering of the source.

B1: HsUGP (Homo sapiens) (protein)
chain: MSRFVQDLSKAMSQDGASQFQEVIRQELELSVKKELEKILTTASSHEFEHTKKDLDGFRKLFHRFLQEKGPSVDWGKIQRPPEDSIQPYEKIKARGLPDNISSVLNKLVVVKLNGGLGTSMGCKGPKSLIGVRNENTFLDLTVQQIEHLNKTYNTDVPLVLMNSFNTDEDTKKILQKYNHCRVKIYTFNQSRYPRINKESLLPVAKDVSYSGENTEAWYPPGHGDIYASFYNSGLLDTFIGEGKEYIFVSNIDNLGATVDLYILNHLMNPPNGKRCEFVMEVTNKTRADVKGGTLTQYEGKLRLVEIAQVPKAHVDEFKSVSKFKIFNTNNLWISLAAVKRLQEQNAIDMEIIVNAKTLDGGLNVIQLETAVGAAIKSFENSLGINVPRSRFLPVKTTSDLLLVMSNLYSLNAGSLTMSEKREFPTVPLVKLGSSFTKVQDYLRRFESIPDMLELDHLTVSGDVTFGKNVSLKGTVIIIANHGDRIDIPPGAVLENKIVSGNLRILDH
notes: octameric
For B1, the values for the Km in series [1], in series [2] and in series [3] were 842.0 ± 72.8 µM, 34.2 ± 1.99 µM and 76.29 ± 3.96 µM, respectively.

B2: HsUGP (Homo sapiens; G116D) (protein)
chain: B1 chain with G116D
notes: octameric
In the case of B2, the Michaelis constant (Km) in series [2] is recorded as 53.97 ± 4.11 µM; in series [3], 79.50 ± 4.93 µM.
